Data on nine molecules can be found in patent US20240245805A1 (Orna Therapeutics, Inc., priority 2020, published 2024).

Sequences and labels used below:
B1: Porcine Kobuvirus GS2 (nucleic acid, listed as Kobuvirus sp.)
DNA: TTTGAAAAGGGGGTGGGGGGGCCTCGGCCCCCTCACCCTCTTTTCCGGTGGCCATTCGCCCGGGCCACCGTTACTCCACTCCACTCCTTCGGGACTGGTTTGGAGGAACACAACAGGGCTTCCCATCCCTGTTTACCCTTTATTCCATCATCCTTTCCCCAAGTTTACCCTATCCACACCCCACTGACTGACTCCTTTGGATTTTGACCTCAGAATGCCTATTTGACCTCCCACTCGCCTCTCCCTTTTCGGATTGCCGGTGGTGCCTGGCGGAAAAAGCACAAGTGTGTTGCAGGCTACCAAACTCCTACCCGACAAAGGTGCGTGTCCGCGTGCTGAGTAATGGGATAGGAGATGCCTACAACAGGCTCGCCCATGAGTAGAGCATGGACTGCGGTGCATGTGACTTCGGTCACCACGGGCATAGCATTGCTCACCCGTGAATCAAGTCATCGAGATTTCTCTGACCTCTGAAGTGCACTGTGGTTGCGTGGCTGGGAATCCACGCTTGACCATGTACTGCTTGATAGAGTCGCGGCTGGCCGACTCATGGGTTAAAGTCAGTTGACAAGACAC
modifications: lipid formulation
B2: Pegivirus I (nucleic acid)
DNA: AGAATGGTCTAAGTGGTTGCCACCGTGGTCCGAAGGGGAGGAGGACCTACGCTGCCAGGGTTGGCAGGTCGTAAATCCCGGGTGTAGGAGATCCCTCCTTGTTAGGACTGCTGGTAGCTGGGGGGTCGGTGACCCCCTGGGCAACCGCCAAACCCGGACGACCGGGTGGCGGCTCCATGTTGGCACGGTCCACAGGTGTGAACCCTACCGGTGTGAATAAGGGTTGGTGGTTGCGGTCCACCTTAAACGTAGTATGCATTGGGCTTGGTAAAACACCGCTCGTAGTACGGAACGCCGCCTTTAAAGACACAGTAGGCGTAGCCGGCGGGTTGACAATCCATACGGGGGGTGGGGTGTGGTCATGGATCTGTCCACACCACCTTCATGCGGCCCTCTAAGCAAGCCATACCGGGGGGAGGCGCGCGGCACCGCACTGCCGGGCAAGGGGAAGAACCTTCGGGTGACCCCCCCCCAACCACCGTCCGATCAATGCTAATGTTGCGTTTAGGCGTGACACCGGCACA
modifications: lipid formulation; Pegivirus I
B3: Human pegivirus isolate JD2B1I (nucleic acid, listed as Pegivirus sp.)
DNA: TCAGGGTTGGTAGGTCGTAAATCCCGGTCACCTTGGTAGCCACTATAGGTGGGTCTTAAGAGAAGGTTAAGATTCCTCTTGTGCCTGCGGCGAGACCGCGCACGGTCCACAGGTGTTGGCCCTACCGGTGGGAATAAGGGCCCGACGTCAGGCTCGTCGTTAAACCGAGCCCGTCACCCACCTGGGCAAACGACGCCCACGTACGGTCCACGTCGCCCTTCA
B4: 18-675 (nucleic acid)
DNA: CCCACAGCAAGAATGCCATCATCTGTCCTCACCCCCAATTTTCCCTTTTCTTCCCCTGCAACCATTACGCTTACTCGCATGTGCATTGAGTGGTGCATGTGTTGAACAAACAGCTACACTCACATGGGGGCGGGTTTTCCCGCCCTACGGCCTCTCGCGAGGCCCACCCCTTCCCTCCCCTTATAACTACAGTGCTTTGGTAGGTAAGCATCCTGATCCCCCGCGGAAGCTGCTCACGTGGCAACTGTGGGGACCCAGACAGGTTATCAAAGGCACCCGGTCTTTCCGCCTTCAGGAGTATCCCTACTAGTGAATTCTAGCGGGGCTCTGCTTGGTGCCAACCTCCCCCAAATGCGCGCTGCGGGAGTGCTCTTCCCCAACTCACCCTAGTATCCTCTCATGTGTGTGCTTGGTCAGCATATCTGAGACGATGTTCCGCTGTCCCAGACCAGTCCAGTAATGGACGGGCCAGTGCGTGTAGTCGTCTTCCGGCTTGTCCGGGGCATGTTTGGTGAACCGGTGGGGTAAGGTTGGTGTGCCCAACGCCCGTACTTTGGTGACACCTCAAGACCACCCAGGAATGCCAGGGAGGTACCCCACCTCACGGTGGGATCTGACCCTGGGCTAATTGTCTACGGTGGTTCTTCTTGCTTCCACTTCTTTCTTCTGTTCACG
modifications: source: /note="Description of Unknown: 18-675 sequence"
B5: Symapivirus A (nucleic acid)
DNA: TTGGGAAATCCCCAATGCTTCTTTCAACACCGCCTGACTATGCGGTGGCGCTTCGGCTCAAACAACTAGTCACTTCCCCCTCTTAACTACTACCCAAGACTTCTAACTACCCTTACCTACTTATTTGTCTAAATTTCAAACTTTTATTCTCACGCGTCTTATAAACATCTTTTCTATTTGTTATGGTATGTTTTGTGATTTGTGTGGTGTATTTCATTTAATGGGATCTAGTGGACCGTGCCCCGGTTGGGTATCCGCTCCCTTTAAATGTTTGCAAGCACTCTTGACATTATAACCTATCATTTAGTTTACTTGTTTGTATGATCGTATTTCTGAATCGTAACATTTATGCAATTCTTTCTCGCCGAGACTTGTCTAGGAGATAAAGTTCCTGCATATTTAGTGTTACGGTTGTATAATGGAGACTTAGATAGCTTCACACTGAGGACGCTTTTTCGCTATCCTTTTGACCTGATTCAGGCCAGTGTGGAGTTAATGATTGTATGGATGGGCCCTACAATTTGTCTAAGACTTGGTGATAGCCTCGCGGCCGCTCGCCATTTATACAACTGAATAGCGGTTGAAACTCTCT
modifications: Symapivirus A
B6: Tropivirus A (nucleic acid)
DNA: TGTCGCATGTTGCCAACATCAAAATTCTGGGAGAGTCGCGAACTCCTTAACACTGCCTTGCCTCGACGGAGCCGTTGTTATAGTGTCGACGGGATACAAACATTAAACTAAACCCACTTGCCTCGACGGAACCCCTTACCTTTTATTTTATTTTATAGTATGAAAGTGAATCTTGTATGAATGTTCATAGAAAACTGCAAATGAGTACCACGTCTAACATGAGAGAATGATACTGGAGAAATCCAAGTTTAGAAGTCACTACGAATCCCAGCGGAAACAAGGGAATTCTGAGCTTCTAATAGGCGTTTAAGACTATTTGCAAAATTCTGGTGCGTAAGTGATATTTTCATTGCGTAGAACGCTGGTAACCACTCCGGCTAGTATAAGCATTGTTAGTCACTTATTATGAAACTCCACACTATCCTTTCTGGAGAAGCACACAAACTTACATGGTAAAGCTAGACCATTATCTTAAGCGGTGAGTACACTGCAACCTTGTAACAATGCTTGTATGACTACTTTTTGTATATCTTGAGCAATATTGTTGAGGTGGACATGTCCAAAGGTAATGTTGTTGGGAATGGAGGGGTCCATTTTCCCGTGCACGTAGTGTACTAGTATTGGGTGATAGCCTTGCGGCGGATCAACCATGTATTTTAATCCGTTGACTTTCAC
modifications: Tropivirus A
B7: A73-675 (nucleic acid)
DNA: TTACTCCATTCAGCTTCTTCGGAACCTGTTCGGAGGAATTAAACGGGCACCCATACTCCCCCCACCCCCCTTTTGTAACTAAGTATGTGTGCTCGTGATCTTGACTCCCACGGAACGGACCGATCCGTTGGTGAACAAACAGCTAGGTCCACATCCTCCCTTCCCCTGGGAGGGCCCCCGCCCTCCCACATCCTCCCCCCAGCCTGACGTATCACAGGCTGTGTGAAGCCCCCGCGAAAGCTGCTCACGTGGCAATTGTGGGTCCCCCCTTCATCAAGACACCAGGTCTTTCCTCCTTAAGGCTAGCCCCGGCGTGTGAATTCACGTTGGGCAACTAGTGGTGTCACTGTGCGCTCCCAATCTCGGCCGCGGAGTGCTGTTCCCCAAGCCAAACCCCTGGCCCTTCACTATGTGCCTGGCAAGCATATCTGAGAAGGTGTTCCGCTGTGGCTGCCAACCTGGTGACAGGTGCCCCAGTGTGCGTAACCTTCTTCCGTCTCCGGACGGTAGTGATTGGTTAAGATTTGGTGTAAGGTTCATGTGCCAACGCCCTGTGCGGGATGAAACCTCTACTGCCCTAGGAATGCCAGGCAGGTACCCCACCTCCGGGTGGGATCTGAGCCTGGGCTAATTGTCTACGGGTAGTTTCATTTCCAATCCTTTTATGTCGGAGTC
modifications: source: /note="Description of Unknown: A73-675 sequence"
B8: Simian pegivirus (nucleic acid, listed as Pegivirus sp.)
DNA: GGGGAATCTCACCCCCCGTCCGGTTCCGGAAGAATCGGAAACCGACACCCTGACCAATCATTCTTGATCATAGAGTGGATGTTAGTGAAAGCCAGACGAAAGCCGGCGGATGGGTGGTGACAGGGTTGGTAGGTCGTAAATCCCGGCCACCCTGGTACCCGGTATAAGTTGGGCGGAAGCTGACTGAAGCTCCGTGCTCTTTTCTGTGCGTTCTTGGTGCACGGTCCACAGGTGACGCCTATACCGGTGTGAATAATAGGCCGACTCGAGCGGAGTCGTTAAACTGAGAACCTCCATACGGATGGCAACTTGGCTTGCGTACGGGGACGCCGCTAAAGTCACAGTGGGTTAAGTCCGGCGGGTTGACAACCCCAGCAAGGCGAGGGGGTCCTATTGTTGGACTCTGCCAGTTCCCGGTGGAGGTAGGCATGGGGTGGCCCAGCTCCGCGGCGCGCTACAGCCGGGGTAGCCCAAAATCCGAAAGGTGAGGGCGGGCCACATGTCCGAAATTTAGTCAAGC
modifications: lipid formulation
B9: Aichivirus Rt386 (nucleic acid, listed as Aichivirus sp.)
DNA: ACTCCATTCAGCTTCTTCGGAACCTGTTCGGAGGAATTAAACGGGCACCCACTTTCCTGTCCTCTCCCCCTTTCTGCAACTCAAGTGTGTGCTCGTAATCCTGACTCCCACGGGTTGACCGCCCCGTTGGTGAACAAACAGCTAGGTCATTCCCTCCCTACCCCTGGGCGCCATTTCAGTGGCGTTCATATCCTCCCCCCAGCCTGACGTGTCACAGGCTGTGCAAAGTCCCCGCGAAAGCTGCTCACGTGGCAATTGTGGGTCCCCCCTTTGTGAAGGAACCGAGTCTTTCTCCCTTAAGGCTAGACCCCTGTGTGAACTCACAGGTGGCAACTAGTGGTTCCACTGCATGCTCCCGACCTCGGCCGCGGAGTGCTGTTCCCCAAGTCGTGACACTGACCTCCACTTATGTGCCTGGCAAGCATATCTGAGAAGATGTTCCGCTGTGGCTGCCAAACCTGGTAACAGGTGCCCCAGTGCGTGTAGTCTTCTTCCGTCTCCGGACGGTAAGTGTGTGGTAAAGATGCGGCGTAAGGTTCAAGTGCCAACGCCCTGGAAGGGATGACCCTTCTACTGCCCTAGGAATGCCGCGCAGGTACCCCAGGTTCGCCTGGGATCTGAGCGCGGGCTAATTGTCTACGGGTAGTTTCATTTCCCTCTCTTTTCACTGGCATC

This series relates to HEK293 cells. In kind it is cell-based, human. To be noted: circular RNA encoding Gluc with the listed IRES (UTR truncated to 675 nt) transfected into HEK293 cells; supernatant after 24 hours.
On to B1, for which the “Expression (luminescence from secreted Gluc protein)” value (shortened to “Expression”) is 44200000.
The value for B2 was 8.02E+04.
Regarding B3, the “Expression” value was 6.85E+05.
Consider B4, for which the “Expression” value stood at 6.04E+07.
Take B5: the “Expression” value turned out to be 1.27E+05.
With B6, the “Expression” value came to 9.52E+04.
Take B7: the “Expression” value is 1.30E+08.
Consider B8, for which the “Expression” value was 8.56E+04.
As for B9, the “Expression” value was 5.71E+07.
